The record followed here is US10064928B2, “Peptides and combination of peptides for use in immunotherapy against CLL and other cancers” (IMMATICS BIOTECHNOLOGIES GMBH, priority 2015, dated 2018).

In the test the target is HLA-A*02:01 (Homo sapiens, UniProt P04439, D140Y/D185E/D98H/E176V/E277Q/G131W/G231S/I119V/I121R/I166T/I218V/L300P/L318F/N151K/N90K/P208A/P217A/Q86G/Q94H/R138H/R169H/T345S). Put plainly: MHC binding assay (UV-ligand exchange, beta2m ELISA). The note with it: binding of HLA-class I restricted peptides to HLA-A*02:01, β2m ELISA. From the text: Candidate peptides for T cell based therapies according to the present invention were further tested for their MHC binding capacity (affinity). The individual peptide-MHC complexes were produced by UV-ligand exchange, where a UV-sensitive peptide is cleaved upon UV-irradiation, and exchanged with the peptide of interest as analyzed. Only peptide candidates that can effectively bind and stabilize the peptide-receptive MHC molecules prevent dissociation of the MHC complexes. To determine the yield of the exchange reaction, an ELISA was performed based on the detection of the light chain (β2m) of stabilized MHC complexes. The assay was performed as generally described in Rodenko et al. (Rodenko et al., 2006).
96 well MAXISorp plates (NUNC) were coated over night with 2 ug/ml streptavidin in PBS at room temperature, washed 4× and blocked for 1 h at 37° C. in 2% BSA containing blocking buffer. Refolded HLA-A*02:01/MLA-001 monomers served as standards, covering the range of 15-500 ng/ml. Peptide-MHC monomers of the UV-exchange reaction were diluted 100 fold in blocking buffer. Samples were incubated for 1 h at 37° C., washed four times, incubated with 2 ug/ml HRP conjugated anti-β2m for 1 h at 37° C., washed again and detected with TMB solution that is stopped with […]. Absorption was measured at 450 nm. Candidate peptides that show a high exchange yield (preferably higher than 50%, most preferred higher than 75%) are generally preferred for a generation and production of antibodies or fragments thereof, and/or T cell receptors or fragments thereof, as they show sufficient avidity to the MHC molecules and prevent dissociation of the MHC complexes.
On the technique in general: An ELISA detects its analyte on a solid surface through an enzyme-linked reagent.
Turning to “3 (VIAELPPKV; listed as Homo sapiens) [compound 3]”, the “Peptide Exchange (MHC class I binding score, peptide exchange yield)” value (shortened to “Peptide Exchange”) is ““++” (≥20% = ++)”.

In the case of “4 (VIAELPPKVSV; listed as Homo sapiens) [compound 4]”, the “Peptide Exchange” value was ““+++” (≥50 = +++)”.

“6 (ALDTLEDDMTI; listed as Homo sapiens) [compound 6]”: the “Peptide Exchange” value is on record as ““+++” (≥50 = +++)”.

Turning to “7 (ALLERTGYTL; listed as Homo sapiens) [compound 7]”, the “Peptide Exchange” value is ““+++” (≥50 = +++)”.

Turning to “8 (ALAASALPALV; listed as Homo sapiens) [compound 8]”, the “Peptide Exchange” value is given as ““+++” (≥50 = +++)”.

As to “9 (ALCDTLITV; listed as Homo sapiens) [compound 9]”, the “Peptide Exchange” value is ““+++” (≥50 = +++)”.

Turning to “10 (FVYGESVEL; listed as Homo sapiens) [compound 10]”, the “Peptide Exchange” value is listed as ““+++” (≥50 = +++)”.

Regarding “11 (ALFTFSPLTV; listed as Homo sapiens) [compound 11]”, the “Peptide Exchange” value is given as ““+++” (≥50 = +++)”.

With “12 (ALGEDEITL; listed as Homo sapiens) [compound 12]”, the “Peptide Exchange” value is listed as ““+++” (≥50 = +++)”.

For the substance “13 (VVDGMPPGV; listed as Homo sapiens) [compound 13]”, the “Peptide Exchange” value is listed as ““+++” (≥50 = +++)”.

As to “14 (ALLRLLPGL; listed as Homo sapiens) [compound 14]”, the “Peptide Exchange” value is given as ““+++” (≥50 = +++)”.

Regarding “15 (ALPEVSVEA; listed as Homo sapiens) [compound 15]”, the “Peptide Exchange” value is listed as ““+++” (≥50 = +++)”.

As for “16 (ALPGGAAVAAV; listed as Homo sapiens) [compound 16]”, the “Peptide Exchange” value is recorded as ““++++” (≥75% = ++++)”.

Take “18 (LLGEFSIKM; listed as Homo sapiens) [compound 18]”: the “Peptide Exchange” value is recorded as ““+++” (≥50 = +++)”.

Regarding “19 (QVMEKLAAV; listed as Homo sapiens) [compound 19]”, the “Peptide Exchange” value was ““+++” (≥50 = +++)”.

Regarding “20 (ALVDPGPDFVV; listed as Homo sapiens) [compound 20]”, the “Peptide Exchange” value was ““+++” (≥50 = +++)”.

In the case of “21 (ALWAGLLTL; listed as Homo sapiens) [compound 21]”, the “Peptide Exchange” value was ““+++” (≥50 = +++)”.

As for “22 (ALWDPVIEL; listed as Homo sapiens) [compound 22]”, the “Peptide Exchange” value is ““+++” (≥50 = +++)”.

For the substance “23 (ALYLTEVFL; listed as Homo sapiens) [compound 23]”, the “Peptide Exchange” value was ““++++” (≥75% = ++++)”.

Consider “24 (AMAGDVVYA; listed as Homo sapiens) [compound 24]”, for which the “Peptide Exchange” value is recorded as ““+++” (≥50 = +++)”.

In the case of “25 (ATYSGLESQSV; listed as Homo sapiens) [compound 25]”, the “Peptide Exchange” value is listed as ““++” (≥20% = ++)”.

Turning to “27 (AVLGLVWLL; listed as Homo sapiens) [compound 27]”, the “Peptide Exchange” value is ““+++” (≥50 = +++)”.

Turning to “28 (AVLHLLLSV; listed as Homo sapiens) [compound 28]”, the “Peptide Exchange” value is given as ““++” (≥20% = ++)”.

For “29 (AVLQAVTAV; listed as Homo sapiens) [compound 29]”, the “Peptide Exchange” value is recorded as ““+++” (≥50 = +++)”.

For the substance “30 (ELLEGSEIYL; listed as Homo sapiens) [compound 30]”, the “Peptide Exchange” value is listed as ““+++” (≥50 = +++)”.

With “31 (ELMHGVAGV; listed as Homo sapiens) [compound 31]”, the “Peptide Exchange” value was ““+++” (≥50 = +++)”.
